Laboratory results as given in patent publication US20240000938A1 (A2 BIOTHERAPEUTICS, published 2024).

What was measured:
[1] = biological target: HLA-A*02 / HA-1(H) peptide … on T2 cells (human); assay: cell-based or functional assay
HLA-A*02 on cells = HLA-A*02 on cells (human); assay: cell-based or functional assay

Binder | Emax shifted downward (KRAS TCR) [1] | Emax shifted downward (NY-ESO-1 TCR) [1] | additional right shift in activity of the NY-ESO-1 TCR [1] | block of KRAS TCR activity [1] | EC50 right shift of the NY-ESO-1 TCR (HLA-A*02 on cells)
HA-1 Ftcr blocker (TCR, V domains shown) V domain 1: KNEVEQSPQNLTAQEGEFITINCSYSVGISALHWLQQHPGGGIVSLFMLSSGKKKHGRLIATINIQEKHSSLHITASHPRDSAVYICAVRSVSGAGSYQLTFGKGTKLSVIP V domain 2: DTGVSQNPRHKITKRGQNVTFRCDPISEHNRLYWYRQTLGQGPEFLTYFQNEAQLEKSRLLSDRFSAERPKGSFSTLEIQRTEQGDSAMYLCASSIDSFNEQFFGPGTRLTVLE | 2.7 fold | 1.5 fold | ~10 fold | ~5 fold | –
VLHDDLLEA [HA-1(H) peptide VLHDDLLEA] | – | – | – | – | ~30 fold
